From US20210147536A1 (MAB VENTURE BIOPHARM, published 2021)

T1: human LAG-3-6*His tag recombinant fusion protein (human, UniProt P18627 23-450, biotin-labelled in panning and in Example 9)
T1 construct: Bought protein; also called hLAG-3-6*his tag recombinant protein; human LAG-3-his tag recombinant fusion protein
T1 sequence: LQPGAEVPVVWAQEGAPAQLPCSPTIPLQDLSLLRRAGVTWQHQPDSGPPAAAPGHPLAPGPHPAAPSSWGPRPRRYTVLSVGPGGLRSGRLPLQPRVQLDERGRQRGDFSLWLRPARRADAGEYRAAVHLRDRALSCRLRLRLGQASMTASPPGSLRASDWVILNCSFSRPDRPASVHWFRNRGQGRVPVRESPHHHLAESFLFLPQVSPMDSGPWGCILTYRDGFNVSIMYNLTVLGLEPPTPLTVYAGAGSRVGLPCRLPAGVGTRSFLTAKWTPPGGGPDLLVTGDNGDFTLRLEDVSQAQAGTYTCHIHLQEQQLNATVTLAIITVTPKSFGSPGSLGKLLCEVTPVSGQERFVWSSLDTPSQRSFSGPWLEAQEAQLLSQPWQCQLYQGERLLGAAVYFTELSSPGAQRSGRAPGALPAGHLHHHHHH

T2: human LAG-3 on the cell surface (human, UniProt P18627 23-525)
T2 construct: whole, on cells; also called cells expressing the human LAG-3
T2 sequence (looked up): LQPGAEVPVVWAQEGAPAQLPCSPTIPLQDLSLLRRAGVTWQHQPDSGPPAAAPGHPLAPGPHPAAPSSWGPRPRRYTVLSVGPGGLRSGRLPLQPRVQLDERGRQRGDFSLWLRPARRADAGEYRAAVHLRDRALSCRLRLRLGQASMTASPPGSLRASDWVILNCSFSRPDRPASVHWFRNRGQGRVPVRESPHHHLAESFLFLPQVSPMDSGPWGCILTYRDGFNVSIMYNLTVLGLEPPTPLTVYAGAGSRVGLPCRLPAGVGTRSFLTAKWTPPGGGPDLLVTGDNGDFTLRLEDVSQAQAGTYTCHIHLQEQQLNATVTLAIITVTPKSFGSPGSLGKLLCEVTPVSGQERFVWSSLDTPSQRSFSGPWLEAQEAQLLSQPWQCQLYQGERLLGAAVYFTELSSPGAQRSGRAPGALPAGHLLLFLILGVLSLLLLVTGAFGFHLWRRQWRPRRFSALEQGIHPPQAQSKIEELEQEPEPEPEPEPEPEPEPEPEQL


What was measured:
[1] = biological target: T1, human LAG-3-6*His tag recombinant …; experiment: ELISA, human LAG-3-6*His coated at 1 µg/ml, IgG4 titrated, anti-hIgG HRP
[2] = biological target: T1, human LAG-3-6*His tag recombinant …; experiment: ELISA as in Example 4 (antibody coated, human LAG-3-6*His titrated)
[3] = biological target: T2, human LAG-3 on the cell surface; experiment: flow cytometry on cells expressing the human LAG-3, PE anti-human IgG; N = 1
[4] = biological target: T2, human LAG-3 on the cell surface; experiment: flow cytometry on cells expressing the human LAG-3, PE anti-human IgG; N = 2
[5] = biological target: T2, human LAG-3 on the cell surface; experiment: cell-based or functional assay
[6] = biological target: T2, human LAG-3 on the cell surface; experiment: flow cytometry on cells expressing the human LAG-3, PE anti-human IgG; N = 4
[7] = biological target: T1, human LAG-3-6*His tag recombinant …; experiment: ELISA as in Example 4 (antibody coated, human LAG-3-6*His titrated); N = 3
[8] = biological target: T1, human LAG-3-6*His tag recombinant …; experiment: ELISA as in Example 4 (antibody coated, human LAG-3-6*His titrated); N = 2

| Binder | EC50 [2] | EC50, ability to activate T cells in vitro (LAG3/NFAT Reporter-Jurkat) [5] | EC50 [6] | also measured |
| --- | --- | --- | --- | --- |
| IgG4 monoclonal antibody 11454 (antibody, V domains shown, IgG4, lambda) VH: EVQLLQSGGGLVQPGGSLRLSCAASGFTFSSYEMNWVRQAPGKGLEWVSYISSSGSTIYYADSVKGRFTISRDNAKNSLYLQMNSLRAEDTAVYYCARVGLLDAFDIWGQGTMVTVSS VL: QSVLTQPPSVSAAPGQKVTISCSGSSSNIGNNYVSWYQLIPEKAPRLLIYDDDKRPSGIPDRFSGSQSGTSATLGITGLQTGDEADYFCGTWDNSLSGAVFGGGTQLIILG |  |  |  | EC50 [1]: 85.8 µg/mL |
| MV705-3-VH-DD + DE-IgG4 (antibody, V domains shown, human IgG4 S228P constant region, MV705-3 lambda light chain; also called 13365; 13365 (DD + DE)) VH: EVQLLESGAEVKKPGASVKVSCKASGYTFTSYGISWVRQAPGQGLEWMGWISAYNGNTNYAQKLQGRVTMTTDTSTSTAYMELRSLRSDDTAVYYCARDGWWELLRPDEAFDIWGQGTTVTVSS VL: QLVLTQSPSVSVSPGQTASITCSGDKLGDKYAYWYQQKPGQAPVLVIYYDSDRPSGIPERFSGSNSGNTATLTISRVEAGDEADYYCQVWDSSSDQVVFGGGTQLTVLG | 1.29 µg/mL |  |  | EC50 [3]: > 10 µg/mL |
| MV705-3-VH-DE + DE-IgG4 (antibody, V domains shown, human IgG4 S228P constant region, MV705-3 lambda light chain; also called 13565; 13565 (DE + DE)) VH: EVQLLESGAEVKKPGASVKVSCKASGYTFTSYGISWVRQAPGQGLEWMGWISAYNGNTNYAQKLQGRVTMTTDTSTSTAYMELRSLRSDETAVYYCARDGWWELLRPDEAFDIWGQGTTVTVSS VL: QLVLTQSPSVSVSPGQTASITCSGDKLGDKYAYWYQQKPGQAPVLVIYYDSDRPSGIPERFSGSNSGNTATLTISRVEAGDEADYYCQVWDSSSDQVVFGGGTQLTVLG | 3.13 µg/mL |  |  | EC50 [4]: > 0.01 µg/mL |
| MV705-3-VH-DD + ED-IgG4 (antibody, V domains shown, human IgG4 S228P constant region, MV705-3 lambda light chain; also called 13386; 13386 (DD + ED)) VH: EVQLLESGAEVKKPGASVKVSCKASGYTFTSYGISWVRQAPGQGLEWMGWISAYNGNTNYAQKLQGRVTMTTDTSTSTAYMELRSLRSDDTAVYYCARDGWWELLRPEDAFDIWGQGTTVTVSS VL: QLVLTQSPSVSVSPGQTASITCSGDKLGDKYAYWYQQKPGQAPVLVIYYDSDRPSGIPERFSGSNSGNTATLTISRVEAGDEADYYCQVWDSSSDQVVFGGGTQLTVLG | 0.15 µg/mL | > 30 µg/mL | 0.0059 µg/mL |  |
| MV705-3-VH-DE + ED-IgG4 (antibody, V domains shown, human IgG4 S228P constant region, MV705-3 lambda light chain; also called 13563; 13563 (DE + ED)) VH: EVQLLESGAEVKKPGASVKVSCKASGYTFTSYGISWVRQAPGQGLEWMGWISAYNGNTNYAQKLQGRVTMTTDTSTSTAYMELRSLRSDETAVYYCARDGWWELLRPEDAFDIWGQGTTVTVSS VL: QLVLTQSPSVSVSPGQTASITCSGDKLGDKYAYWYQQKPGQAPVLVIYYDSDRPSGIPERFSGSNSGNTATLTISRVEAGDEADYYCQVWDSSSDQVVFGGGTQLTVLG | 0.21 µg/mL | > 30 µg/mL | 0.0047 µg/mL |  |
| MV705-3-VH-DE + DD-IgG4 (antibody, V domains shown, human IgG4 S228P constant region, MV705-3 lambda light chain; also called 13380; 13380 (DE + DD)) VH: EVQLLESGAEVKKPGASVKVSCKASGYTFTSYGISWVRQAPGQGLEWMGWISAYNGNTNYAQKLQGRVTMTTDTSTSTAYMELRSLRSDETAVYYCARDGWWELLRPDDAFDIWGQGTTVTVSS VL: QLVLTQSPSVSVSPGQTASITCSGDKLGDKYAYWYQQKPGQAPVLVIYYDSDRPSGIPERFSGSNSGNTATLTISRVEAGDEADYYCQVWDSSSDQVVFGGGTQLTVLG |  | 0.05 µg/mL | 0.0018 µg/mL | EC50 [7]: 0.044 µg/mL |

Second part, led by results:

| EC50 [2] | EC50, ability to activate T cells in vitro (LAG3/NFAT Reporter-Jurkat) [5] | EC50 [6] | Binder | also measured |
| --- | --- | --- | --- | --- |
|  | 0.1 µg/mL | 0.0022 µg/mL | MV705-3-VH-ED + DD-IgG4 (antibody, V domains shown, human IgG4 S228P constant region, MV705-3 lambda light chain; also called 13381; 13381 (ED + DD)) VH: EVQLLESGAEVKKPGASVKVSCKASGYTFTSYGISWVRQAPGQGLEWMGWISAYNGNTNYAQKLQGRVTMTTDTSTSTAYMELRSLRSEDTAVYYCARDGWWELLRPDDAFDIWGQGTTVTVSS VL: QLVLTQSPSVSVSPGQTASITCSGDKLGDKYAYWYQQKPGQAPVLVIYYDSDRPSGIPERFSGSNSGNTATLTISRVEAGDEADYYCQVWDSSSDQVVFGGGTQLTVLG | EC50 [7]: 0.044 µg/mL |
| 2.43 µg/mL |  |  | MV705-3-VH-ED + DE-IgG4 (antibody, V domains shown, human IgG4 S228P constant region, MV705-3 lambda light chain; also called 13564; 13564 (ED + DE)) VH: EVQLLESGAEVKKPGASVKVSCKASGYTFTSYGISWVRQAPGQGLEWMGWISAYNGNTNYAQKLQGRVTMTTDTSTSTAYMELRSLRSEDTAVYYCARDGWWELLRPDEAFDIWGQGTTVTVSS VL: QLVLTQSPSVSVSPGQTASITCSGDKLGDKYAYWYQQKPGQAPVLVIYYDSDRPSGIPERFSGSNSGNTATLTISRVEAGDEADYYCQVWDSSSDQVVFGGGTQLTVLG | EC50 [3]: > 0.01 µg/mL |
|  | > 30 µg/mL |  | MV705-3-VH-ED + ED-IgG4 (antibody, V domains shown, human IgG4 S228P constant region, MV705-3 lambda light chain; also called 13616; 13616 (ED + ED)) VH: EVQLLESGAEVKKPGASVKVSCKASGYTFTSYGISWVRQAPGQGLEWMGWISAYNGNTNYAQKLQGRVTMTTDTSTSTAYMELRSLRSEDTAVYYCARDGWWELLRPEDAFDIWGQGTTVTVSS VL: QLVLTQSPSVSVSPGQTASITCSGDKLGDKYAYWYQQKPGQAPVLVIYYDSDRPSGIPERFSGSNSGNTATLTISRVEAGDEADYYCQVWDSSSDQVVFGGGTQLTVLG | EC50 [4]: 0.0051 µg/mL; EC50 [8]: 0.21 µg/mL |
